We go through one molecule from US20260125446A1 (Eli Lilly, published 2026).

Assay [1] deals with T1, cynomolgus monkey serum albumin (cynomolgus monkey, UniProt A2V9Z4 25-608).
T1 construct: Bought protein, immobilized on a CM5 chip by amine coupling; also called Cyno SA
The assay can be described thus: SPR (Biacore 8K), albumin immobilized on CM5 chip, 25 C, 1:1 kinetic fit. On the technique in general: In SPR one partner is held on a chip, and binding of the other changes the refractive index at the surface.

The next assay has as its target T2, mouse serum albumin (mouse, UniProt P07724 25-608).
T2 construct: Bought protein, immobilized on a CM5 chip by amine coupling; also called Mouse SA
The description is as above.

Another assay deals with T3, rat serum albumin (rat, UniProt P02770 25-608).
T3 construct: Bought protein, immobilized on a CM5 chip by amine coupling; also called Rat SA
Described as above.

In the next assay the target is T4, human serum albumin (human, UniProt P02768 25-609).
T4 construct: Bought protein, immobilized on a CM5 chip by amine coupling; also called Human SA
The description is as above.

The target of the next assay is T5, pig serum albumin (pig, UniProt P08835 25-607).
T5 construct: Bought protein, immobilized on a CM5 chip by amine coupling; also called Pig SA
The description is as above.

The next assay deals with T6, dog serum albumin (dog, UniProt P49822 25-608).
T6 construct: Bought protein, immobilized on a CM5 chip by amine coupling; also called Dog SA
Described as above.

A further assay deals with T7, rabbit serum albumin (rabbit, UniProt P49065 25-608).
T7 construct: Bought protein, immobilized on a CM5 chip by amine coupling; also called Rabbit SA
As to the kind of experiment: SPR (Biacore 8K), albumin immobilized on CM5 chip, 25 C.

The target of another assay is T8, cow serum albumin (cow, UniProt P02769 25-607).
T8 construct: Bought protein, immobilized on a CM5 chip by amine coupling; also called Cow SA
As to the kind of experiment: SPR (Biacore 8K), albumin immobilized on CM5 chip, 25 C, steady state.

B1: RLN Analog 13 (other)
chain: EVQLLESGGGLVQPGGSLRLSCAASGRYIDETAVAWFRQAPGKGREFVAGIGGGVDITYYADSVKGRFTISRDNSKNTLYLQMNSLRPEDTAVYYCAARPGRPLITSKVADLYPYWGQGTLVTVSSGGGGQGGGGQGGGGQGGGGQGGGGQALANKCCHVGCTKRSLARFCGGGSGGSGGGSWMEEVIKLCGRELVRAQIAICGMSTWS
notes: Single-chain fusion: VHH - (G4Q)5 L1 - RLN2 A chain (desA1-4) - L2 - RLN2 B chain (desB1)
Take B1: the Kd – broadly, the constant that tells how readily two partners part at equilibrium – in assay [1] was 0.49 nM; with mouse serum albumin it was 2.6 nM; in the assay with rat serum albumin it was 2 nM; with human serum albumin, 0.14 nM; with pig serum albumin it was 5 nM; in the assay with dog serum albumin, 0.92 nM. Besides, the Kd in the assay with cow serum albumin is 29 nM. The koff (as a rule, a measure of how fast the partners let go of each other) in assay [1] came out at 0.0007 s⁻¹; with mouse serum albumin, 0.0048 s⁻¹; with rat serum albumin, 0.0033 s⁻¹; with human serum albumin, 0.00019 s⁻¹; with pig serum albumin it was 0.006 s⁻¹; in the assay with dog serum albumin, 0.0017 s⁻¹. The kon (commonly the second-order rate constant of association) in assay [1] came to 1.4e+06 M⁻¹ s⁻¹; in the assay with mouse serum albumin, 1.8e+06 M⁻¹ s⁻¹; with rat serum albumin, 1.7e+06 M⁻¹ s⁻¹; with human serum albumin it was 1.4e+06 M⁻¹ s⁻¹; with pig serum albumin, 1.2e+06 M⁻¹ s⁻¹; with dog serum albumin it was 1.9e+06 M⁻¹ s⁻¹. Also, the binding result with rabbit serum albumin is recorded as “no binding (tested: 1000 nM (highest concentration tested))”.
